Tests used:
[1] = molecular target: βKlotho protein (AVIVA SYSTEMS BIOLOGY); experiment: ELISA on coated βKlotho, detection with anti-human IgG4 Fc-HRP, OD450
[2] = molecular target: βKlotho protein (AVIVA SYSTEMS BIOLOGY); experiment: BLI (Octet RED 96), biotinylated βKlotho on streptavidin probe, fusion protein at 40 nM
[3] = molecular target: βKlotho protein (AVIVA SYSTEMS BIOLOGY); experiment: BLI (Octet RED 96), biotinylated βKlotho on streptavidin probe

Sequence of βKlotho protein (AVIVA SYSTEMS BIOLOGY) (chain, as listed by the source): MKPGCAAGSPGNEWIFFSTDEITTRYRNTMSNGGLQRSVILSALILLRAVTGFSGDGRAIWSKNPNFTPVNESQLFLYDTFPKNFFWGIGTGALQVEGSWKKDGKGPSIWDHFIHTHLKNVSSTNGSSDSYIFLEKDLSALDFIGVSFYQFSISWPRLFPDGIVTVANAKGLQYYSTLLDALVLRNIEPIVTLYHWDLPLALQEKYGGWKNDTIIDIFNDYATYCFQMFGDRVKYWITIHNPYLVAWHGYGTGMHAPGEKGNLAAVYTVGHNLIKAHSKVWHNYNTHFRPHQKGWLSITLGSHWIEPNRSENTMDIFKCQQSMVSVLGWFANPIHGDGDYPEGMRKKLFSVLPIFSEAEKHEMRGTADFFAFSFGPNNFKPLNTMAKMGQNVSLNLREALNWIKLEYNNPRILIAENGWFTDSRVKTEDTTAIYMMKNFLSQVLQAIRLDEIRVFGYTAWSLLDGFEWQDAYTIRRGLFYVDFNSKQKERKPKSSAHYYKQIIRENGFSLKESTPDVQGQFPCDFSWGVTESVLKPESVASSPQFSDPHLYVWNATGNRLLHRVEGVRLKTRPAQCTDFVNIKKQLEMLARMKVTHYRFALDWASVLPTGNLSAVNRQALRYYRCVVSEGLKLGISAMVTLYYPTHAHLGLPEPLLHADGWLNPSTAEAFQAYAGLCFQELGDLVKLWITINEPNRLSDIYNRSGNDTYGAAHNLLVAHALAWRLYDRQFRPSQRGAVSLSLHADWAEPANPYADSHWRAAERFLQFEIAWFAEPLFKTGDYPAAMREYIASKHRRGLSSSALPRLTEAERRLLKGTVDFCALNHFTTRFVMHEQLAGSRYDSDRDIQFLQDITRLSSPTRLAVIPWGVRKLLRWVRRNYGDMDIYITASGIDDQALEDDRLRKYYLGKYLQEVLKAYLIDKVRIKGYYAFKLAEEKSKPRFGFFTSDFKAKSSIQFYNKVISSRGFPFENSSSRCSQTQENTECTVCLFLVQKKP

Row | EC50 (read off the curve) [1] | Kd [2] | Response values [2] | binding ability relative to S7 [3] | Binder
1 | ~0.2 µg/mL | – | – | – | fusion protein S5 (human IgG4 Fc - linker - FGF21 variant 98R, 167H, 171A, 175H) (Fc fusion) ESKYGPPCPPCPAPEAAGGPSVFLFPPKPKDTLMISRTPEVTCVVVDVSQEDPEVQFNWYVDGVEVHNAKTKPREEQFNSTYRVVSVLTVLHQDWLNGKEYKCKVSNKGLPSSIEKTISKAKGQPREPQVYTLPPSQEEMTKNQVSLTCLVKGFYPSDIAVEWESNGQPENNYKTTPPVLDSDGSFFLYSKLTVDKSRWQEGNVFSCSVMHEALHNHYTQKSLSLSLGGGGGSGGGGSGGGGSHPIPDSSPLLQFGGQVRQRYLYTDDAQQTEAHLEIREDGTVGGAADQSPESLLQLKALKPGVIQILGVKTSRFLCQRPDGALYGSLHFDPEACSFRERLLEDGYNVYQSEAHGLPLHLPGNKSPHRDPAPRGPARFLPLPGLPPALPEPPGILAPQPPDVGSSDPLHMVGASQGHSPSYAS
2 | – | 0.873 nM | 0.143 | – | fusion protein S7 (human IgG4 Fc - linker - FGF21 variant 98R, 171A) (Fc fusion) ESKYGPPCPPCPAPEAAGGPSVFLFPPKPKDTLMISRTPEVTCVVVDVSQEDPEVQFNWYVDGVEVHNAKTKPREEQFNSTYRVVSVLTVLHQDWLNGKEYKCKVSNKGLPSSIEKTISKAKGQPREPQVYTLPPSQEEMTKNQVSLTCLVKGFYPSDIAVEWESNGQPENNYKTTPPVLDSDGSFFLYSKLTVDKSRWQEGNVFSCSVMHEALHNHYTQKSLSLSLGGGGGSGGGGSGGGGSHPIPDSSPLLQFGGQVRQRYLYTDDAQQTEAHLEIREDGTVGGAADQSPESLLQLKALKPGVIQILGVKTSRFLCQRPDGALYGSLHFDPEACSFRERLLEDGYNVYQSEAHGLPLHLPGNKSPHRDPAPRGPARFLPLPGLPPALPEPPGILAPQPPDVGSSDPLSMVGASQGRSPSYAS

Further lines, the binder ahead of its results:

Row | Binder | EC50 (read off the curve) [1] | Kd [2] | Response values [2] | binding ability relative to S7 [3]
3 | fusion protein S4 (human IgG4 Fc - linker - FGF21 variant 98R, 167H, 171A, 175P) (Fc fusion) ESKYGPPCPPCPAPEAAGGPSVFLFPPKPKDTLMISRTPEVTCVVVDVSQEDPEVQFNWYVDGVEVHNAKTKPREEQFNSTYRVVSVLTVLHQDWLNGKEYKCKVSNKGLPSSIEKTISKAKGQPREPQVYTLPPSQEEMTKNQVSLTCLVKGFYPSDIAVEWESNGQPENNYKTTPPVLDSDGSFFLYSKLTVDKSRWQEGNVFSCSVMHEALHNHYTQKSLSLSLGGGGGSGGGGSGGGGSHPIPDSSPLLQFGGQVRQRYLYTDDAQQTEAHLEIREDGTVGGAADQSPESLLQLKALKPGVIQILGVKTSRFLCQRPDGALYGSLHFDPEACSFRERLLEDGYNVYQSEAHGLPLHLPGNKSPHRDPAPRGPARFLPLPGLPPALPEPPGILAPQPPDVGSSDPLHMVGASQGPSPSYAS | ~0.08 µg/mL | – | – | –
4 | fusion protein S1 (human IgG4 Fc - linker - FGF21 variant 98R, 167H, 171A) (Fc fusion, Purified from HEK293F cells by Protein A) ESKYGPPCPPCPAPEAAGGPSVFLFPPKPKDTLMISRTPEVTCVVVDVSQEDPEVQFNWYVDGVEVHNAKTKPREEQFNSTYRVVSVLTVLHQDWLNGKEYKCKVSNKGLPSSIEKTISKAKGQPREPQVYTLPPSQEEMTKNQVSLTCLVKGFYPSDIAVEWESNGQPENNYKTTPPVLDSDGSFFLYSKLTVDKSRWQEGNVFSCSVMHEALHNHYTQKSLSLSLGGGGGSGGGGSGGGGSHPIPDSSPLLQFGGQVRQRYLYTDDAQQTEAHLEIREDGTVGGAADQSPESLLQLKALKPGVIQILGVKTSRFLCQRPDGALYGSLHFDPEACSFRERLLEDGYNVYQSEAHGLPLHLPGNKSPHRDPAPRGPARFLPLPGLPPALPEPPGILAPQPPDVGSSDPLHMVGASQGRSPSYAS | ~0.02 µg/mL | 0.63 nM | 0.17 | –
5 | fusion protein S2 (human IgG4 Fc - linker - FGF21 variant 98R, 167H, 171A, 175L) (Fc fusion) ESKYGPPCPPCPAPEAAGGPSVFLFPPKPKDTLMISRTPEVTCVVVDVSQEDPEVQFNWYVDGVEVHNAKTKPREEQFNSTYRVVSVLTVLHQDWLNGKEYKCKVSNKGLPSSIEKTISKAKGQPREPQVYTLPPSQEEMTKNQVSLTCLVKGFYPSDIAVEWESNGQPENNYKTTPPVLDSDGSFFLYSKLTVDKSRWQEGNVFSCSVMHEALHNHYTQKSLSLSLGGGGGSGGGGSGGGGSHPIPDSSPLLQFGGQVRQRYLYTDDAQQTEAHLEIREDGTVGGAADQSPESLLQLKALKPGVIQILGVKTSRFLCQRPDGALYGSLHFDPEACSFRERLLEDGYNVYQSEAHGLPLHLPGNKSPHRDPAPRGPARFLPLPGLPPALPEPPGILAPQPPDVGSSDPLHMVGASQGLSPSYAS | ~0.02 µg/mL | 0.429 nM | 0.19 | 2 fold

Source: patent publication US20210196794A1 (SUNSHINE LAKE PHARMA, published 2021)
